Measured values: patent publication US20220348617A1
pKd: −log10 of the molar value.

Key:
[1] = target: Notch1 EGF domains 6-13 (human) (UniProt P46531); assay: SPR; settings: ligand
[2] = target: Notch 3 EGF domains 5-12 (human) (UniProt Q9UM47); assay: SPR; settings: ligand
[3] = target: Notch2 EGF domains 6-13 (human) (UniProt Q04721); assay: SPR; settings: ligand
[4] = target: Notch1 EGF domains 6-13 (human) (UniProt P46531); assay: SPR; N-EGF3; settings: ligand
[5] = target: Notch 3 EGF domains 5-12 (human) (UniProt Q9UM47); assay: SPR; N-EGF3; settings: ligand
[6] = target: Notch2 EGF domains 6-13 (human) (UniProt Q04721); assay: SPR; N-EGF3; settings: ligand
[7] = target: Notch1 on the fluorescent Notch1 reporter cell line (CHO^N1); assay: cell-based or functional assay

Sequence of Notch 3 EGF domains 5-12 (human) (Q9UM47 197-505): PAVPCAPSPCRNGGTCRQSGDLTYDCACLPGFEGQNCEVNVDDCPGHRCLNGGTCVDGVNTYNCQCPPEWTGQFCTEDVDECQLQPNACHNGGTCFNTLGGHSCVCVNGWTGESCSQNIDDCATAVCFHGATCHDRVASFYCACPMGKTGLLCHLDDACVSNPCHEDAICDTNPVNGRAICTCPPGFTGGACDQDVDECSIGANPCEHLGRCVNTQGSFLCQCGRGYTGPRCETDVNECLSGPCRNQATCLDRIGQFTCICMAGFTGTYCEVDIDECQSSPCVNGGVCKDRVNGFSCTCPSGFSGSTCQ
Sequence of Notch1 EGF domains 6-13 (human) (P46531 218-526): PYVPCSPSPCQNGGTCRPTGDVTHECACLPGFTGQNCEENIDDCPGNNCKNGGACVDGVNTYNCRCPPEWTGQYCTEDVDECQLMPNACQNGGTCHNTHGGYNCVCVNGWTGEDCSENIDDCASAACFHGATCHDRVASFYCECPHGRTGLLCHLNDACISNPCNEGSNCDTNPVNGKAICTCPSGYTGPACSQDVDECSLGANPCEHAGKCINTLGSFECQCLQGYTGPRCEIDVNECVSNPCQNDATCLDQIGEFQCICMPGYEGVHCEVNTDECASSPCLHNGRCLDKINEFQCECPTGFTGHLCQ
Sequence of Notch2 EGF domains 6-13 (human) (Q04721 221-530): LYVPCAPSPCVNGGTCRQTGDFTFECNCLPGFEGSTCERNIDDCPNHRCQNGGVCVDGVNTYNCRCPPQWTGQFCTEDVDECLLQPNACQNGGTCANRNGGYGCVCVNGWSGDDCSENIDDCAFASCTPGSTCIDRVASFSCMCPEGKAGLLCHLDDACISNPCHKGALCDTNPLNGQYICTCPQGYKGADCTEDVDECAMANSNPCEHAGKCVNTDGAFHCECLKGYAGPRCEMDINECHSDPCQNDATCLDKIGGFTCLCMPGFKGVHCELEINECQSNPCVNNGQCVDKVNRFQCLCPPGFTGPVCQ

pKd [1]	pKd [2]	pKd [3]	pKd [4]	pKd [5]	pKd [6]	Notch1 activation (fluorescent Notch1 reporter cells, co-culture) [7] [%]	Substance
6.35	6.33	6.12	6.99	6.91	6.61		E12 human DLL4 (from UniProt Q9NR61 27-322)
8.70	8.33	8.13					N3a.5_E12 human DLL4 (from UniProt Q9NR61 27-322)
8.38	8.14	7.82					N3a.8_E12 human DLL4 (from UniProt Q9NR61 27-322)
						100	wild-type human DLL4 expressed on 293T cells (from UniProt Q9NR61 27-685) (ligand)
